T1: human IL6R (human, UniProt P08887 20-358, limits assumed)
T1 construct: Antigen of the Biacore experiments
T1 sequence (looked up): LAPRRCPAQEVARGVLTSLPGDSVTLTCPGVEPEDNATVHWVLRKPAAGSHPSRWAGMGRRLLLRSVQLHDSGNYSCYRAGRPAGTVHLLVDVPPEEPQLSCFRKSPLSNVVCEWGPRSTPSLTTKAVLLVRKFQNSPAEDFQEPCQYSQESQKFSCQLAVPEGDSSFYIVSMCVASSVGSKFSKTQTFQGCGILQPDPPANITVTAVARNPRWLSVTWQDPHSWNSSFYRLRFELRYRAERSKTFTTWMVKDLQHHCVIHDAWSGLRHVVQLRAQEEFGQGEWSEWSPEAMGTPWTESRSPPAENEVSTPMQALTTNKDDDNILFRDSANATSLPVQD


What follows are binders tested against T1, human IL6R (assay: SPR (Biacore), periplasmic extract).
Experimental: The oligos were dissolved in H₂O and subsequently pooled at a final concentration of 0.4 uM for each oligo. 5 and 1 ul of this mixture was used for assembly PCR in a 50 ul reaction volume. Full-length product was purified using the Qiagen PCR purification kit. The purified PCR product was then digested with SfiI and BsteEII and ligated into the corresponding sites of expression vector pAX51. E. coli TG1 cells were transformed with 2 ul of ligation mixture and plated on LB agar+100 ug/ml ampicillin+2% glucose. Plates were incubated overnight at 37° C. Individual colonies were picked and grown overnight in 2×YT+100 ug/ml ampicillin+2% glucose. Cloned Nanobody genes were amplified directly from these cultures with M13 forward and reverse primers. PCR products were purified and subsequently sequenced. In parallel the same panel of Nanobodies was expressed at 1 ml scale for 4 hours at 37° C. Periplasmic extracts were prepared and without further purification analyzed on Biacore for their ability to bind human IL6R.

Binder	koff
32C9PMP1_D4 (VHH, name in Kabat numbering, Humanized 32C9 variant) VHH: EVQLVESGGGLVQAGGSLRLSCAASGFTFSDYDIGWFRQAPGKGREGVSGISSSDGNTYYADSVKGRFTISSDNAKNTLYLQMNSLKAEDTAVYYCAAEPPDSSWYLDGSPEFFKYWGQGTQVTVSS	0.000196 s⁻¹
32C9PMP1_B5 (VHH, name in Kabat numbering, Humanized 32C9 variant) VHH: EVQLVESGGGLVQPGGSLRLSCAASGFTFSDYDIGWFRQAPGKEREWVSGISSSDGNTYYADSVKGRFTISRDNAKNTLYLQMNSLRPEDTAVYYCAAEPPDSSWYLDGSPEFFKYWGQGTQVTVSS	0.00196 s⁻¹
32C9PMP1_B3 (VHH, name in Kabat numbering, Humanized 32C9 variant) VHH: EVQLVESGGGLVQPGGSLRLSCAASGFTFDDYDIGWVRQAPGKELEGVSGISSSDGNTYYADSVKGRFTISSDNAKNTLYLQMNSLRPEDTAVYYCAAEPPDSSWYLDGSPEFFKYWGQGTLVTVSS	0.00346 s⁻¹
32C9PMP2_D10 (VHH, name in Kabat numbering, Humanized 32C9 variant) VHH: EVQLVESGGGLVQPGGSLRLSCAASGFTFSDYDIGWVRQAPGKELEGVSGISSSDGNTYYADSVKGRFTISSDNAKNTVYLQMNSLRPEDTAVYYCAAEPPDSSWYLDGSPEFFKYWGQGTLVTVSS	0.00707 s⁻¹
32C9PMP2_C6 (VHH, name in Kabat numbering, Humanized 32C9 variant) VHH: EVQLVESGGGLVQAGGSLRLSCAASGFTFSDYDIGWVRQAPGKGREWVSGISSSDGNTYYADSVKGRFTISSDNAKNTLYLQMNSLRPEDTAVYYCAAEPPDSSWYLDGSPEFFKYWGQGTQVTVSS	0.00426 s⁻¹
32C9PMP2_E2 (VHH, name in Kabat numbering, Humanized 32C9 variant) VHH: EVQLVESGGGLVQPGGSLRLSCAASGFTFSDYDIGWFRQAPGKELEGVSGISSSDGNTYYADSVKGRFTISSDNAKNTLYLQMNSLKAEDTAVYYCAAEPPDSSWYLDGSPEFFKYWGQGTQVTVSS	0.00121 s⁻¹
32C9PMP2_G4 (VHH, name in Kabat numbering, Humanized 32C9 variant) VHH: EVQLVESGGGLVQAGGSLRLSCAASGFTFDDYDIGWVRQAPGKGREGVSGISSSDGNTYYADSVKGRFTISRDNAKNTLYLQMNSLKAEDTAVYYCAAEPPDSSWYLDGSPEFFKYWGQGTQVTVSS	0.0007 s⁻¹
32C9PMP2_E1 (VHH, name in Kabat numbering, Humanized 32C9 variant) VHH: EVQLVESGGGLVQPGGSLRLSCAASGFTFDDYDIGWFRQAPGKELEGVSGISSSDGNTYYADSVKGRFTISSDNAKNTVYLQMNSLRPEDTAVYYCAAEPPDSSWYLDGSPEFFKYWGQGTQVTVSS	0.00166 s⁻¹
32C9PMP1_G11 (VHH, name in Kabat numbering, Humanized 32C9 variant) VHH: EVQLVESGGGLVQAGGSLRLSCAASGFTFSDYDIGWFRQAPGKGREGVSGISSSDGNTYYADSVKGRFTISSDNAKNTVYLQMNSLRPEDTAVYYCAAEPPDSSWYLDGSPEFFKYWGQGTLVTVSS	0.000204 s⁻¹
Nanobody 32C9 (VHH, Tested as periplasmic extract; also called 32C9 WT; IL6R04) VHH: EVQLVESGGGLVQAGGSLRLSCAASGFTFDDYDIGWFRQAPGKEREGVSGISSSDGNTYYADSVKGRFTISSDNAKNTVYLQMNSLKPEDTAVYYCAAEPPDSSWYLDGSPEFFKYWGQGTQVTVSS	0.000162 s⁻¹
32C9PMP2_C3 (VHH, name in Kabat numbering, Humanized 32C9 variant) VHH: EVQLVESGGGLVQAGGSLRLSCAASGFTFSDYDIGWVRQAPGKEREWVSGISSSDGNTYYADSVKGRFTISSDNAKNTLYLQMNSLKAEDTAVYYCAAEPPDSSWYLDGSPEFFKYWGQGTQVTVSS	0.0138 s⁻¹
32C9PMP2_B11 (VHH, name in Kabat numbering, Humanized 32C9 variant) VHH: EVQLVESGGGLVQAGGSLRLSCAASGFTFDDYDIGWVRQAPGKEREWVSGISSSDGNTYYADSVKGRFTISSDNAKNTLYLQMNSLRPEDTAVYYCAAEPPDSSWYLDGSPEFFKYWGQGTQVTVSS	0.00768 s⁻¹
32C9PMP1_C5 (VHH, name in Kabat numbering, Humanized 32C9 variant) VHH: EVQLVESGGGLVQAGGSLRLSCAASGFTFDDYDIGWVRQAPGKELEGVSGISSSDGNTYYADSVKGRFTISSDNAKNTVYLQMNSLRPEDTAVYYCAAEPPDSSWYLDGSPEFFKYWGQGTLVTVSS	0.0052 s⁻¹
32C9PMP2_B5 (VHH, name in Kabat numbering, Humanized 32C9 variant) VHH: EVQLVESGGGLVQAGGSLRLSCAASGFTFSDYDIGWVRQAPGKGREGVSGISSSDGNTYYADSVKGRFTISSDNAKNTVYLQMNSLRPEDTAVYYCAAEPPDSSWYLDGSPEFFKYWGQGTLVTVSS	0.000803 s⁻¹
32C9PMP2_A2 (VHH, name in Kabat numbering, Humanized 32C9 variant) VHH: EVQLVESGGGLVQPGGSLRLSCAASGFTFSDYDIGWFRQAPGKGREGVSGISSSDGNTYYADSVKGRFTISRDNAKNTLYLQMNSLKAEDTAVYYCAAEPPDSSWYLDGSPEFFKYWGQGTQVTVSS	0.000192 s⁻¹
32C9PMP1_E7 (VHH, name in Kabat numbering, Humanized 32C9 variant) VHH: EVQLVESGGGLVQAGGSLRLSCAASGFTFDDYDIGWFRQAPGKGREGVSGISSSDGNTYYADSVKGRFTISSDNAKNTLYLQMNSLKAEDTAVYYCAAEPPDSSWYLDGSPEFFKYWGQGTLVTVSS	0.000187 s⁻¹
32C9PMP2_B3 (VHH, name in Kabat numbering, Humanized 32C9 variant) VHH: EVQLVESGGGLVQAGGSLRLSCAASGFTFSDYDIGWFRQAPGKEREGVSGISSSDGNTYYADSVKGRFTISRDNAKNTVYLQMNSLKAEDTAVYYCAAEPPDSSWYLDGSPEFFKYWGQGTLVTVSS	0.000308 s⁻¹
32C9PMP2_A7 (VHH, name in Kabat numbering, Humanized 32C9 variant) VHH: EVQLVESGGGLVQAGGSLRLSCAASGFTFSDYDIGWVRQAPGKGREGVSGISSSDGNTYYADSVKGRFTISRDNAKNTLYLQMNSLKAEDTAVYYCAAEPPDSSWYLDGSPEFFKYWGQGTLVTVSS	0.000792 s⁻¹

Now from value to binder:

koff	Binder
0.00515 s⁻¹	32C9PMP1_A1 (VHH, name in Kabat numbering, Humanized 32C9 variant) VHH: EVQLVESGGGLVQAGGSLRLSCAASGFTFSDYDIGWVRQAPGKEREWVSGISSSDGNTYYADSVKGRFTISSDNAKNTLYLQMNSLRPEDTAVYYCAAEPPDSSWYLDGSPEFFKYWGQGTLVTVSS
0.00116 s⁻¹	32C9PMP1_G5 (VHH, name in Kabat numbering, Humanized 32C9 variant) VHH: EVQLVESGGGLVQPGGSLRLSCAASGFTFDDYDIGWFRQAPGKELEGVSGISSSDGNTYYADSVKGRFTISRDNAKNTLYLQMNSLRPEDTAVYYCAAEPPDSSWYLDGSPEFFKYWGQGTLVTVSS
0.000205 s⁻¹	32C9PMP1_E1 (VHH, name in Kabat numbering, Humanized 32C9 variant) VHH: EVQLVESGGGLVQAGGSLRLSCAASGFTFSDYDIGWFRQAPGKGREGVSGISSSDGNTYYADSVKGRFTISRDNAKNTLYLQMNSLKAEDTAVYYCAAEPPDSSWYLDGSPEFFKYWGQGTLVTVSS
0.000197 s⁻¹	32C9PMP2_G12 (VHH, name in Kabat numbering, Humanized 32C9 variant) VHH: EVQLVESGGGLVQAGGSLRLSCAASGFTFSDYDIGWFRQAPGKGREGVSGISSSDGNTYYADSVKGRFTISRDNAKNTLYLQMNSLKAEDTAVYYCAAEPPDSSWYLDGSPEFFKYWGQGTQVTVSS
0.000982 s⁻¹	32C9PMP1_E6 (VHH, name in Kabat numbering, Humanized 32C9 variant) VHH: EVQLVESGGGLVQAGGSLRLSCAASGFTFSDYDIGWVRQAPGKGREGVSGISSSDGNTYYADSVKGRFTISSDNAKNTVYLQMNSLKAEDTAVYYCAAEPPDSSWYLDGSPEFFKYWGQGTLVTVSS
0.00564 s⁻¹	32C9PMP2_B12 (VHH, name in Kabat numbering, Humanized 32C9 variant) VHH: EVQLVESGGGLVQPGGSLRLSCAASGFTFSDYDIGWFRQAPGKEREWVSGISSSDGNTYYADSVKGRFTISSDNAKNTVYLQMNSLKAEDTAVYYCAAEPPDSSWYLDGSPEFFKYWGQGTQVTVSS
0.00189 s⁻¹	32C9PMP1_F8 (VHH, name in Kabat numbering, Humanized 32C9 variant) VHH: EVQLVESGGGLVQAGGSLRLSCAASGFTFSDYDIGWFRQAPGKEREWVSGISSSDGNTYYADSVKGRFTISSDNAKNTLYLQMNSLKAEDTAVYYCAAEPPDSSWYLDGSPEFFKYWGQGTLVTVSS
0.000187 s⁻¹	32C9PMP1_H4 (VHH, name in Kabat numbering, Humanized 32C9 variant) VHH: EVQLVESGGGLVQPGGSLRLSCAASGFTFSDYDIGWFRQAPGKGREGVSGISSSDGNTYYADSVKGRFTISSDNAKNTLYLQMNSLKAEDTAVYYCAAEPPDSSWYLDGSPEFFKYWGQGTQVTVSS
0.000804 s⁻¹	32C9PMP2_F3 (VHH, name in Kabat numbering, Humanized 32C9 variant) VHH: EVQLVESGGGLVQAGGSLRLSCAASGFTFDDYDIGWVRQAPGKGREGVSGISSSDGNTYYADSVKGRFTISSDNAKNTVYLQMNSLKAEDTAVYYCAAEPPDSSWYLDGSPEFFKYWGQGTLVTVSS
0.0029 s⁻¹	32C9PMP2_A12 (VHH, name in Kabat numbering, Humanized 32C9 variant) VHH: EVQLVESGGGLVQAGGSLRLSCAASGFTFDDYDIGWFRQAPGKELEGVSGISSSDGNTYYADSVKGRFTISSDNAKNTVYLQMNSLKAEDTAVYYCAAEPPDSSWYLDGSPEFFKYWGQGTQVTVSS
0.000584 s⁻¹	32C9PMP2_F12 (VHH, name in Kabat numbering, Humanized 32C9 variant) VHH: EVQLVESGGGLVQAGGSLRLSCAASGFTFDDYDIGWVRQAPGKGREGVSGISSSDGNTYYADSVKGRFTISSDNAKNTLYLQMNSLRPEDTAVYYCAAEPPDSSWYLDGSPEFFKYWGQGTLVTVSS

Source: patent US20100292083A1 (Ablynx, published 2010)
